# Source: patent US11685791B2, “Antibody binding specifically to N-terminal region of lysyl-tRNA synthetase exposed on cell membrane” (Zymedi Co., Ltd., priority 2017, dated 2023)
# B1: N3 IgG: IgG converted from N3 scFv; VH SEQ ID NO: 49, VL SEQ ID NO: 51; binds KRS N-terminal region (antibody, V domains shown)
# VH: EVQLLESGGGLVQPGGSLRLSCAASGFTFSSYDMSWVRQAPGKGLEWVSAISYDNGNTYYADSVKGRFTISRDNSKNTLYLQMNSLRAEDTAVYYSARMALDFDYWGQGTLVTVSS
# VL: QSVLTQPPSASGTPGQRVTISCTGSSSNIGSNYVTWYQQLPGTAPKLLIYDNSNRPSGVPDRFSGSKSGTSASLAISGLRSEDEADYYCASWDDSLSAYVFGGGTKLTVL
# System: RAW 264.7 cells
# Assay: Transwell migration assay of monocytes/macrophages with laminin 421
# Assay type: cell-based
# Conditions: 100 nM, 24 h, laminin 421 1 μg/ml
# Description: The effect on immune cell migration and invasion was investigated using N3 IgG antibody as a representative among the antibodies constructed in Example 1 above. Specific experimental methods were as follows. Transwell (Corning, #3421-5 mm) was coated with gelatin (0.5 mg/ml), and then RAW 264.7 cells (1×10^5 cells/well) were seeded in the top chamber. Serum-free DMEM (500 μl) containing laminin 421 (1 μg/ml) was placed in the bottom chamber. The top chamber was treated with each antibody at 100 nM. After 24 h, immobilization with 70% methanol was carried out for 30 min, and then staining with 50% hematoxylin was carried out for 30 min. The non-migrating cells present on the upper part of the membrane were removed by cotton swabs, and then the membrane was taken and mounted on the slide. The migrating cells present on the bottom surface of the membrane were observed by a high-resolution microscope (FIG. 20A), and the cells were counted on the obtained images and plotted on the graph (FIG. 20B).
molecule,measurement,value
B1,inhibition of LN421-dependent monocyte/macrophage migration,effectively inhibited
